{"source": "paper PMC4894451", "about": "(Scientific Reports, 2014)", "proteins": {"B1": {"name": "DepH from Chromobacterium violaceum No. 968 (enzyme)", "chain": "not shown"}}, "target": "the molecule itself", "assay": "SEC"}
{"protein": "B1", "values": [{"measurement": "stoichiometry N", "result": 2}]}
